B1: TPR t1 (parent)
chain: GACCAAUCUGCCCUCAGAGCUCGAGAACAUCUUCGGAUGCAGAGGAGGCAGGCUUCGGUGGCGCGAUAGCGCCAACGUCCUCAACCUCCAAUGCAUCCCACCACAUGAUGAUGCCUGAAGAGCCUUGGUUUUUUG

Variants of: B1
Assay: polymerase ribozyme fitness, log enrichment relative to wild type (log ratio); higher = more active; in vitro selection for triplet polymerase activity
In short: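 A heterodimeric triplet polymerase ribozyme had each of its subunits mutagenized by PCR into a library, which was transcribed. One round of in vitro selection, done in triplicate, annealed each library with a biotinylated primer, its partner subunit and triplets, then incubated it frozen at −7 °C before gel excision of extended constructs, streptavidin-bead capture and RT-PCR. Fitness is the logarithm of genotype enrichment relative to wild-type enrichment, based on Illumina sequencing of inputs and outputs and inverse-variance-weighted replicate averages. A base-2 logarithm is used, and genotypes were kept only with ≥10 input reads and ≥1 read per output.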

Variant	polymerase ribozyme fitness (log ratio)
A66G U106G	-3.66
A66G A100U G128A	-5.33
G63C G107A	-4.87
G63A U132C	-1.92
G63A A75G G122A G127U	-3.17
G69C U126A	-3.12
C64U G135C	0.469
G69A A91U	-6.02
A66U C80A	-5.71
G63C G122A	-0.479
G63A C115U	-1.45
C64A C115U	-5.54
C64U A74C A90C C101G	-4.26
G63C C97G	-4.59
A66U U81A	-1.96
G63A C79U A83G C123G	0.0609
G63U C70A	-0.179
G63U C70U	-0.91
C64U C88A U96G U109C A121G	-6.55
G69A C114G	-4.69
G69A C114U	-5.33
G69A C114A	-5.11
G63A C123U	0.883
G69A C89G C97A A105C G110U	-6.73

Variant	polymerase ribozyme fitness (log ratio)
G69C U78A	-2.44
G63U G127A	-2.25
C64U C124U U130G	0.174
A66C C85A C86A	-2.7
G63A A90C	-2.84
G63A C94A	-0.982
G69C G120C	-0.251
U67C G110U	-3.86
G69C C70G C82A	-4.81
G69U G117C	-2.27
U67C G120U	-4.12
G63A C70A A95C	-3.3
G69A A121U	-0.353
G63A A121C G135A	0.83
G69C C101A	-2.4
C64A G69C A75U U87A U96A	-1.55
A68G C79G A105G G110U	-8.49
G63C G110A	-1.89
G63A A84U C115A U125G	-0.899
A66G C72U C80U C123A	-3.12
G63U G117U	-2.02
C64G G120U	-6.39
C64G G77A A111G U116C	-6.18
G63A C101A	-3.39

Variant	polymerase ribozyme fitness (log ratio)
G63U U87A C114A	-3.29
G69C U81G C82U C104U U112G	-2.5
C64A U78A G93A	-6.61
G63U C73U	-2.45
G69U C72U C114A G128A	-3.08
C64U A74C A75U G110A	-1.89
G63A A66C	-2.96
G63A A66G	-1.9
C64A U96G C123U	-6.2
C64U A66U C72U C97A C123G	-4.97
G63U C72U C115A	-1.23
G69C C86G A91U	-4.84
G69U C114G	-0.996
G63A C98G	-6.74
G63A C98U	-2.12
G63A C85A	-2.01
C64U A75U U116G G122A C124G	0.737
G65A G117A	-4.47
A66G C97U U112G	-2.06
G63U U81C C86A U129C	-5.92
G69U C79U C80U U116C	-0.478
G69U C70G A100C	-1.23
G63U C101A	-2.28
G69A C104U G120A U133A	-0.971

Variant	polymerase ribozyme fitness (log ratio)
G65U	-4.27
G65A	-3.57
G65C	-5.62
C64U U78C	-0.191
A68C	-6.94
A68U	-7.01
A68G	-2.44
C64A C124A	-4.7
G63A U96G U112A	-1.56
U67C C88A	-5.76
C64U G117C	-2.58
G69C A83U U129A	-1.71
C62U U131G	-0.5
G63C C80U G110A	-2.48
U67C C88A G117C	-5.9
G65A A119U	-6.05
G63A G117U	-3.18
G63U C85U G110U	-4.39
G69A C98U	-3.52
G69C G122U C124U	-0.632
C64U U130A	-0.073
C64A G93C G117C	-6.1
G63C G110U C123U G128C	-5.59
G69U G113U	-0.867

Variant	polymerase ribozyme fitness (log ratio)
C62U U126G	-3.05
C62U U132A	-0.469
C62U U132C	-0.257
A66U U106C	-1.81
A66C C82G	-2.06
A66C C82A	-1.46
A66G U87A C99U A118U	-4.99
G69C A91G	-1.94
C64U A83C	-0.261
G63U C70G A118G U125A	-1.35
G69U C94U U112C	1.42
G69C C82A C97G U132A	-5.29
G63C A91U C114A A118G U132A	-4.5
G63C U78A	-0.719
C62U U116A G128A	-5.25
G69U G93A	-0.201
C64U C101A	-1.22
G63C G127U	-1.97
G63A C102U	-3.27
G63C C102A U112A	-1.64
G69C G110C	-4.54
G63A C64U C73G C80U G93A C97U G117U	-6.14
G69C U116C	-1.92
G63A U106A U133G	-1.47

Variant	polymerase ribozyme fitness (log ratio)
G63C C85G	-1.96
G69C G117A	-2.37
G63U C114G G117U	-5.98
G63C U116A	-3.47
G63U G120C U131A	0.507
G69A C72G A95G U125A	-6.14
G69U A105U	-0.0845
G69U A105C	-0.532
G69C C94U	-1.35
G69A C115G	-3.93
C64U U106G G120C	-0.96
A68G C101G	-3.93
A68U A90G C101G G113A G117C	-5.75
C64G A121C	-5.13
G69A U131A	-2.38
G69A U131G	-3.12
G63U A103G	-5.82
C64G U112G	-6.14
A66G U126G	-2.72
G63A A83G A90G C98G A105C	-7.87
G63C A100U G110A C115G	-6.05
U67C C123G	-4.34
C64U C85A	-3.12
A66U C89U	-1.51

Variant	polymerase ribozyme fitness (log ratio)
U67G C82A	-6.14
G69A A84U A91G	-6.33
G69U C76G C85G G120U	-2.87
G63A G135U	-1.49
C64U G110U	-0.774
G63A C73A A119C G120C	-1.42
A66U C76U C89G C124U G128U U132C	-5.09
G69C C98U	-1.79
G69U C98U C115A U130A	-1.03
G63U A83U C101G	-2.97
G69A C104U G127A U129A	-2.62
G63U U92A U96A G113C	-3.99
G69U A83U G127A	-1.18
G63C G113A	-2.11
A68G A90U	-4.47
C64U G120U C123G	1.13
G69U C94A C101G G120U	-1.15
U67C U131A	-4.05
G63C C101U G127U	-1.08
G63A C82G	-1.41
G63A A105G	-3.92
G69C U133A	-1.62
G63A A74U A95U	-3.67
